Data: IntAct's records for PubMed 17341134

Biological target: cdk5_rat Cdk5 (UniProt Q03114)

effect of a mutation on the interaction	Substance
decreasing interaction	BDNF/NT-3 growth factors receptor (Rattus norvegicus (Rat)), Q63604 T489A
decreasing interaction	BDNF/NT-3 growth factors receptor (Rattus norvegicus (Rat)), Q63604 S478A
